Where a chain is given by its changes, count along the chain named.
T1: Human PTK7 Protein, His Tag (Acro Biosystems) (human, UniProt Q13308 31-704)
T1 construct: Bought recombinant protein; also called CCK4; tyrosine-protein kinase-like 7; not shown: His tag
T1 sequence: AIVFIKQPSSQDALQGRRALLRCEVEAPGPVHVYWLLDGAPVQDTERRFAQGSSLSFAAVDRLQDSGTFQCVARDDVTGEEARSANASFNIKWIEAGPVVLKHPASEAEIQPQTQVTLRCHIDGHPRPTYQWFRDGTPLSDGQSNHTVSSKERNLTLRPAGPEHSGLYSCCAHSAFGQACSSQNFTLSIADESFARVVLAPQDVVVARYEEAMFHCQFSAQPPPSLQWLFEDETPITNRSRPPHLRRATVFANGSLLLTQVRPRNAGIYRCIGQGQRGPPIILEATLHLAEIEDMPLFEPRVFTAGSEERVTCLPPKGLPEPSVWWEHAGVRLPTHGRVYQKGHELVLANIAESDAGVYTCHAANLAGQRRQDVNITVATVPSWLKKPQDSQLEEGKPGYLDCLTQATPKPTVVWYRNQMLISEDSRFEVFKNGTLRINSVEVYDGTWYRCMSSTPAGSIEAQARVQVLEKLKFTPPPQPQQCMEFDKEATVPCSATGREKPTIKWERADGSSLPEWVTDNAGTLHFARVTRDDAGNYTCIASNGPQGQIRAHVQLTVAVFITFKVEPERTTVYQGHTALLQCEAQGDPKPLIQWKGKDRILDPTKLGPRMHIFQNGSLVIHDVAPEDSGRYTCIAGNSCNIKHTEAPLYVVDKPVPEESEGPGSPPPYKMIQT

T2: Human PTK7 Protein, His Tag, Acro Biosystems (human, UniProt Q13308 31-704)
T2 construct: Bought recombinant protein; also called CCK4; not shown: His tag
T2 sequence: T1 sequence

B1: MYT11368 (antibody, V domains shown)
VH: EVQLVESGGGLVQPGGSLRLSCTASGIDLSNYAVIWVRQAPGKGLEWVGIIYTYDTTYYANWAKGRFTISRDTSKNTVYLQMNSLRAEDTAVYFCARSHSDISDLIKLWGQGTLVTVSS
VL: EIVMTQSPSTLSASVGDRVIITCQASQSLYNNKDLAWYQQKPGKAPKLLIYEASKLASGVPSRFSGSGSGAEFTLTISSLQPDDFATYYCLGEFSCGSGDCLAFGQGTKLTVL
notes: MYT9797 HC variant; captured via anti-human Fc
B2: MYT11408 (antibody, V domains shown)
VH: B1 VH with H99F
VL: B1 VL with G97H
notes: MYT9797 LC variant; captured via anti-human Fc
B3: MYT11400 (antibody, V domains shown)
VH: B1 VH with H99F
VL: B1 VL with L56H
notes: as for B2
B4: MYT11377 (antibody, V domains shown)
VH: B1 VH with H99F, L108H
VL: B1 VL
notes: as for B1
B5: MYT11399 (antibody, V domains shown)
VH: B1 VH with H99F
VL: B1 VL with K55H
notes: as for B2
B6: MYT11403 (antibody, V domains shown)
VH: B1 VH with H99F
VL: B1 VL with L91H
notes: as for B2
B7: MYT11420 (antibody, V domains shown)
VH: B1 VH with H99F
VL: B1 VL with D100A
notes: MYT9797 LC alanine variant; captured via anti-human Fc
B8: MYT11375 (antibody, V domains shown)
VH: B1 VH with H99F, I106H
VL: B1 VL
notes: as for B1
B9: MYT11387 (antibody, V domains shown)
VH: B1 VH with H99F
VL: B1 VL with S28H
notes: as for B2
B10: MYT11414 (antibody, V domains shown)
VH: B1 VH with H99F
VL: B1 VL with T111E, V112I, L113K
notes: captured via anti-human Fc
B11: MYT11383 (antibody, V domains shown)
VH: B1 VH with H99F
VL: B1 VL with Q24H
notes: as for B2
B12: MYT11413 (antibody, V domains shown)
VH: B1 VH with H99F
VL: B1 VL with A103H
notes: as for B2
B13: MYT11401 (antibody, V domains shown)
VH: B1 VH with H99F
VL: B1 VL with A57H
notes: as for B2
B14: MYT11402 (antibody, V domains shown)
VH: B1 VH with H99F
VL: B1 VL with S58H
notes: as for B2
B15: MYT11386 (antibody, V domains shown)
VH: B1 VH with H99F
VL: B1 VL with Q27H
notes: as for B2
B16: MYT11391 (antibody, V domains shown)
VH: B1 VH with H99F
VL: B1 VL with N32H
notes: as for B2
B17: MYT11379 (antibody, V domains shown)
VH: B1 VH with D28A, H99F
VL: B1 VL
notes: MYT9797 HC alanine variant; captured via anti-human Fc
B18: MYT11385 (antibody, V domains shown)
VH: B1 VH with H99F
VL: B1 VL with S26H
notes: as for B2
B19: MYT11419 (antibody, V domains shown)
VH: B1 VH with H99F
VL: B1 VL with E93A
notes: as for B7
B20: MYT10885 (antibody, V domains shown)
VH: EVQLVESGGGLVQPGGSLRLSCTASHFSLSNYVMNWVRQAPGKGLEWVGIIDSSGSTYYASWAKGRFTISRDTSKNTVYLQMNSLRAEDTAVYFCARGLYLWGQGTLVTVSS
VL: EIVMTQSPSTLSASVGDRVIITCQSSQSVYNNNLLAWYQQKPGKAPKLLIYYTSNLASGVPSRFSGSGSGAEFTLTISSLQPDDFATYYCQGGYNGNIYAFGQGTKLTVL
notes: MYT9345 variant, His at VH pos 26 (H1 01)
B21: MYT10894 (antibody, V domains shown)
VH: B20 VH with H26G, N35H
VL: B20 VL
notes: MYT9345 variant, His at VH pos 35 (H1 10)
B22: MYT10887 (antibody, V domains shown)
VH: B20 VH with H26G, S28H
VL: B20 VL
notes: MYT9345 variant, His at VH pos 28 (H1 03)
B23: MYT10908 (antibody, V domains shown)
VH: B20 VH with H26G, A63H
VL: B20 VL
notes: MYT9345 variant, His at VH pos 63 (H2 14)
B24: MYT10907 (antibody, V domains shown)
VH: B20 VH with H26G, W62H
VL: B20 VL
notes: MYT9345 variant, His at VH pos 62 (H2 13)
B25: MYT10902 (antibody, V domains shown)
VH: B20 VH with H26G, T57H
VL: B20 VL
notes: MYT9345 variant, His at VH pos 57 (H2 08)
B26: MYT10893 (antibody, V domains shown)
VH: B20 VH with H26G, M34H
VL: B20 VL
notes: MYT9345 variant, His at VH pos 34 (H1 09)
B27: MYT10904 (antibody, V domains shown)
VH: B20 VH with H26G, Y59H
VL: B20 VL
notes: MYT9345 variant, His at VH pos 59 (H2 10)
B28: MYT10906 (antibody, V domains shown)
VH: B20 VH with H26G, S61H
VL: B20 VL
notes: MYT9345 variant, His at VH pos 61 (H2 12)
B29: MYT10886 (antibody, V domains shown)
VH: B20 VH with H26G, F27H
VL: B20 VL
notes: MYT9345 variant, His at VH pos 27 (H1 02)
B30: MYT10900 (antibody, V domains shown)
VH: B20 VH with H26G, G55H
VL: B20 VL
notes: MYT9345 variant, His at VH pos 55 (H2 06)
B31: MYT10901 (antibody, V domains shown)
VH: B20 VH with H26G, S56H
VL: B20 VL
notes: MYT9345 variant, His at VH pos 56 (H2 07)
B32: MYT10890 (antibody, V domains shown)
VH: B20 VH with H26G, N31H
VL: B20 VL
notes: MYT9345 variant, His at VH pos 31 (H1 06)

biological target: T1, Human PTK7 Protein, His Tag (Acro …); experiment: BLI, antibody on anti-human Fc sensor, 50 nM PTK7 at pH 7.4, dissociation at pH 7.4 or 5.4; 2 = substantially similar binding relative to parent

| Binder | binding result |
| --- | --- |
| B1 | binds |
| B2 | binds |
| B3 | binds |
| B4 | binds |
| B5 | binds |
| B6 | binds |
| B7 | binds |
| B8 | binds |
| B9 | binds |
| B10 | binds |
| B11 | binds |
| B12 | binds |
| B13 | binds |
| B14 | binds |
| B15 | binds |
| B16 | binds |
| B17 | binds |
| B18 | binds |
| B19 | binds |

biological target: T2, Human PTK7 Protein, His Tag, Acro …; experiment: BLI (Octet), antibody on anti-human Fc sensor, 50 nM PTK7 at pH 7.4, dissociation at pH 7.4 or 5.4; 2 = substantially similar binding relative to parent

| Binder | binding result |
| --- | --- |
| B20 | binds |
| B21 | binds |
| B22 | binds |
| B23 | binds |
| B24 | binds |
| B25 | binds |
| B26 | binds |
| B27 | binds |
| B28 | binds |
| B29 | binds |
| B30 | binds |
| B31 | binds |
| B32 | binds |
